Test results reported in US20030216309A1 (UNIVERSITY OF VERMONT AND STATE AGRICULTURAL COLLEGE, published 2003).

B1: 02-124 peptide phage clone (ErbB2-binding peptide 14) (peptide)
peptide: WTGWCLNPEESTWGFCRSAG
notes: From an EC-1 biased peptide phage library; also called EBP-14
B2: 02-137 peptide phage clone (ErbB2-binding peptide 15) (peptide)
peptide: WTGWCLSPEESTWGFCRSAG
notes: From an EC-1 biased peptide phage library; also called EBP-15
B3: 02-140 peptide phage clone (ErbB2-binding peptide 16) (peptide)
peptide: WTGWCLNPEESTWGFCSGYI
notes: From an EC-1 biased peptide phage library; also called EBP-16
B4: 02-135 peptide phage clone (ErbB2-binding peptide 17) (peptide)
peptide: WTGWCFDDNHSTWGFCTGSF
notes: From an EC-1 biased peptide phage library; also called EBP-17

Columns and labels:
[1] = molecular target: T1, purified ErbB2 ECD-polyhistidine-tagged protein (human, UniProt P04626 23-653); assay: phage ELISA on coated CBECD, BSA as control
T1 construct: also called CBECD; purified extracellular domain of ErbB2 with a His tag; not shown: polyhistidine tag
Procedure: SfmECDAP labeled wells were plated with 250 ng of a purified ErbB2 ECD-alkaline phosphatase fusion protein; CBECD labeled wells were plated with 250 ng of a purified ErbB2 ECD-polyhistidine-tagged protein; bovine serum albumin (denoted BSA) was used as a negative target control. E12 and CB1 are peptide phage clones identified independently that display an identical (ErbB2-binding) peptide. E12CB1-NA peptide phage clones were constructed to present, with and without a glycine-glycine-alanine linker, a shortened form of the peptide. […] G78 is a peptide phage clone that binds strongly to the Grb7 SH2 domain, used here as a negative peptide phage control. Library phage also serve as a negative peptide phage control. 9G6 is an antibody to the ECD of ErbB2.

[2] = molecular target: T2, native, intact ErbB2 extracted from the membranes of human breast cancer cells (human, UniProt P04626 23-1255); assay: phage ELISA on captured membrane lysates
T2 construct: Whole native receptor from cell membrane lysates, captured on plates by an antibody to the intracellular domain of ErbB2; Whole entry named; also called ErbB2 in solubilized membrane preparations / lysates of BT474 and SKBR3 cells
Procedure: The above identified peptide phage specifically bind to native, intact ErbB2 extracted from the membranes of human breast cancer cells that overexpress ErbB2. Plates were coated with 1 μg of an antibody that binds to the intracellular domain of ErbB2, followed by 100 μl of solubilized membrane preparations from two different breast cancer cell lines that overexpress ErbB2 (BT474 and SKBR3), and probed with CB1 peptide-phage, control library phage, and 9G6 anti-ErbB2. MCF7 cells serve as a (relative) negative target control, as MCF7 breast cancer cells express only a low level of ErbB2.

Row | Binder | binding result [1] | binding result [2]
1 | B1 | binds | binds
2 | B2 | binds | binds
3 | B3 | binds | binds
4 | B4 | binds | binds
